Consider eleven molecules from patent US20210388087A1 (Chugai, published 2021).

The target in experiment [1] is T1, human CD137-Fc (human, biotin-labeled).
T1 construct: if 90 already holds the Fc, drop the second piece; also called biotin-labeled human CD137 fused to human IgG1 Fc fragment; biotin-human CD137-Fc; not shown: human IgG1 Fc fragment
Kind of experiment: bead ELISA on biotin-human CD137-Fc with 125 pmol/well free CD3e peptide as competitor. (ELISA stands for enzyme-linked immunosorbent assay.)

Experiment [2] has as its target T1, human CD137-Fc. Kind of experiment: bead ELISA on biotin-human CD137-Fc, 0 pmol free CD3e peptide.
Experiment [3] concerns the target T1, human CD137-Fc. Kind of experiment: bead ELISA on biotin-human CD137-Fc, 125 vs 0 pmol free CD3e peptide.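 Further: target captured on streptavidin-coated magnetic beads, signal read as fluorescence 2 min after adding APS-5 substrate.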
Another experiment addresses human CD3 ed (human, UniProt P07766 23-126; P04234 22-105, limits assumed). Briefly: SPR Biacore T200, IgG captured on protein A, 25 C.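 Further: antigens diluted in ACES running buffer at pH 7.4 were flowed over antibodies held on a CM3 chip bearing amine-coupled protein A, with buffer alone serving as blank.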
In the next experiment the target is T2, cyno CD137 (cynomolgus monkey, UniProt Q07011 24-186 (human entry), limits assumed).
T2 construct: also called cynomolgus monkey CD137
T2 chain: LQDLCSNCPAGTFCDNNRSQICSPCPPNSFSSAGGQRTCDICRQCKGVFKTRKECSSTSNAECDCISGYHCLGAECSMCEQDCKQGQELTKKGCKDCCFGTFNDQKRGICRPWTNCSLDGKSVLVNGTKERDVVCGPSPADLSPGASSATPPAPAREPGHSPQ
Kind of experiment: SPR Biacore T200, IgG captured on protein A, 25 C.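 Further: antigens diluted in ACES running buffer at pH 7.4 were flowed over antibodies held on a CM3 chip bearing amine-coupled protein A, with buffer alone serving as blank.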 Background: In SPR one partner is held on a chip, and binding of the other changes the refractive index at the surface.

B1: dBBDu197 (antibody, V domains shown)
VH: QVQLVESGGGLVQPGRSLRLSCAASGFTFSNAWMHWVRQAPGKGLEWVAQIKDRSNAYAAYYAPSVKGRFTISRDDSKNSIYLQMNSLKTEDTAVYYCHYVHYASASTVLPAFGVDAWGQGTTVTVSS
VL: DIVMTQSPLSLPVTPGEPASISCRSSQSLVHSNRNTYLHWYQQKPGQAPRLLIYKVSNRFSGVPDRFSGSGSGTDFTLKISRVEAEDVGVYYCGQGTQVPYTFGQGTKLEIK
notes: Human IgG1; light chain GLS3000 (kappa)
With B1, the ELISA signal in the experiment with human CD137-Fc [1] stood at 2110; with human CD137-Fc [2], 54400. Moreover, the Signal decrease with human CD137-Fc [3] is 96.1%.

B2: dBBDu189/L112 (antibody, V domains shown)
VH: QVQLVESGGGLVQPGRSLRLSCAASGFTFSNAWMHWVRQAPGKGLEWIAQIKDRSNQYATYYAPSVKGRFTISRDDSKNSIYLQMNSLKTEDTAVYYCHYVHYAQASSLLPSFGVDAWGQGTTVTVSS
VL: DIVMTQSPLSLPVTPGEPASISCTSDQELVHMNRHTYLHWYQQKPGQAPRLLIYKVYNRFPGVPDRFSGSGSGTDFTLKISRVEAEDVGVYYCAQGTSVPFTFGQGTKLEIK
notes: IgG format; constant regions not specified
What is called Kd is the free concentration of one partner at which half of the binding sites on the other are occupied at equilibrium, for simple one-to-one binding. The koff is the rate constant with which the complex falls apart. High values mean a short-lived complex, low ones a long-lived complex. What is called kon is the rate constant with which the complex forms. In the experiment with human CD3 ed, B2 gave a Kd of 0.331 µM, a koff of 0.01 s⁻¹ and a kon of 30300 M⁻¹ s⁻¹. In the experiment with cyno CD137, this molecule gave a Kd of 5.76 µM, a koff of 0.0286 s⁻¹ and a kon of 4980 M⁻¹ s⁻¹.

B3: dBBDu189/L116 (antibody, V domains shown)
VH: QVQLVESGGGLVQPGRSLRLSCAASGFTFSNAWMHWVRQAPGKGLEWIAQIKDRSNQYATYYAPSVKGRFTISRDDSKNSIYLQMNSLKTEDTAVYYCHYVHYAQASSLLPSFGVDAWGQGTTVTVSS
VL: DIVMTQSPLSLPVTPGEPASISCSSSQELVHANRQIYLHWYQQKPGQAPRLLIYKVANRFPGVPDRFSGSGSGTDFTLKISRVEAEDVGVYYCAQGTQVPFTFGQGTKLEIK
notes: as for B2
In the experiment with human CD3 ed, B3 gave a Kd of 0.209 µM, a koff of 0.00434 s⁻¹ and a kon of 20800 M⁻¹ s⁻¹. For the same molecule, in the experiment with cyno CD137, the affinity, expressed as Kd, was 11.1 µM; the koff amounted to 0.00823 s⁻¹; the kon was found to be 744 M⁻¹ s⁻¹.

B4: dBBDu183/L063 (antibody, V domains shown)
VH: QVQLVESGGGLVQPGRSLRLSCAASGFTFSNAWMHWVRQAPGKGLEWVAQIKDKGNAYAAYYAPSVKGRFTISRDDSKNSIYLQMNSLKTEDTAVYYCHYVHYASASTVLPAFGVDAWGQGTTVTVSS
VL: DIVMTQSPLSLPVTPGEPASISCRSSQELVHTNRHTYLHWYQQKPGQAPRLLIYKVSNRFPGVPDRFSGSGSGTDFTLKISRVEAEDVGVYYCAQGTQVPFTFGQGTKLEIK
notes: as for B2
On to B4, for which, in the experiment with human CD3 ed, binding was characterised by a dissociation constant (Kd) of 0.276 µM, the koff is 0.0157 s⁻¹ and the kon was 56900 M⁻¹ s⁻¹. Further, in the experiment with cyno CD137, the Kd amounted to 3.12 µM, the koff was 0.00457 s⁻¹ and the kon was determined as 1470 M⁻¹ s⁻¹.

B5: dBBDu167 (antibody, V domains shown)
VH: QVQLVESGGGLVQPGRSLRLSCAASGFTFSNAWMHWVRQAPGKGLEWVAQIKDKGNLYAAYYAPSVKGRFTISRDDSKNSIYLQMNSLKTEDTAVYYCHYVHYASAGGGLPGFGVDAWGQGTTVTVSS
VL: DIVMTQSPLSLPVTPGEPASISCRSSQSLVHSNRNTYLHWYQQKPGQAPRLLIYKVSNRFSGVPDRFSGSGSGTDFTLKISRVEAEDVGVYYCGQGTQVPYTFGQGTKLEIK
notes: as for B1
For the molecule B5, the results for the ELISA signal with human CD137-Fc [1] and with human CD137-Fc [2] were 1940 and 25700, respectively. The molecule also had a Signal decrease in the experiment with human CD137-Fc [3] of 92.5%.

B6: dBBDu183/L072 (antibody, V domains shown)
VH: QVQLVESGGGLVQPGRSLRLSCAASGFTFSNAWMHWVRQAPGKGLEWVAQIKDKGNAYAAYYAPSVKGRFTISRDDSKNSIYLQMNSLKTEDTAVYYCHYVHYASASTVLPAFGVDAWGQGTTVTVSS
VL: DIVMTQSPLSLPVTPGEPASISCQASQELVHMNRNTYLHWYQQKPGQAPRLLIYKVSNRFPGVPDRFSGSGSGTDFTLKISRVEAEDVGVYYCAQGTSVPFTFGQGTKLEIK
notes: IgG format; also called H183L072
Take B6: in the experiment with human CD3 ed, binding was characterised by a dissociation constant (Kd) of 0.217 µM, the koff was found to be 0.00785 s⁻¹ and the kon is 36100 M⁻¹ s⁻¹. In the experiment with cyno CD137, this molecule had a Kd of 4.87 µM, a koff of 0.00593 s⁻¹ and a kon of 1220 M⁻¹ s⁻¹.

B7: dBBDu183 (antibody, V domains shown)
VH: QVQLVESGGGLVQPGRSLRLSCAASGFTFSNAWMHWVRQAPGKGLEWVAQIKDKGNAYAAYYAPSVKGRFTISRDDSKNSIYLQMNSLKTEDTAVYYCHYVHYASASTVLPAFGVDAWGQGTTVTVSS
VL: DIVMTQSPLSLPVTPGEPASISCRSSQSLVHSNRNTYLHWYQQKPGQAPRLLIYKVSNRFSGVPDRFSGSGSGTDFTLKISRVEAEDVGVYYCGQGTQVPYTFGQGTKLEIK
notes: Human IgG1; light chain GLS3000 (kappa), before light chain maturation
As to B7, the ELISA signal with human CD137-Fc [1] amounted to 2370; in the experiment with human CD137-Fc [2], 34000. Further, the Signal decrease with human CD137-Fc [3] is 93%.

B8: dBBDu179 (antibody, V domains shown)
VH: QVQLVESGGGLVQPGRSLRLSCAASGFTFSNAWMHWVRQAPGKGLEWVAQIKDRSNQYATYYAPSVKGRFTISRDDSKNSIYLQMNSLKTEDTAVYYCHYVHYASASTVLPAFGVDAWGQGTTVTVSS
VL: DIVMTQSPLSLPVTPGEPASISCRSSQSLVHSNRNTYLHWYQQKPGQAPRLLIYKVSNRFSGVPDRFSGSGSGTDFTLKISRVEAEDVGVYYCGQGTQVPYTFGQGTKLEIK
notes: as for B1
For the molecule B8, the figures for the ELISA signal with human CD137-Fc [1] and with human CD137-Fc [2] were 2620 and 61000, respectively. In the experiment with human CD137-Fc [3], the Signal decrease was 95.7%.

B9: dBBDu186/L096 (antibody, V domains shown)
VH: QVQLVESGGGLVQPGRSLRLSCAASGFTFSNAWMHWVRQAPGKGLEWVAQIKDRSNQYATYYAPSVKGRFTISRDDSKNSIYLQMNSLKTEDTAVYYCHYVHYAQASTVLPAFGVDAWGQGTTVTVSS
VL: DIVMTQSPLSLPVTPGEPASISCRTSQELVHINRYIFLHWYQQKPGQAPRLLIYKVYNRFQGVPDRFSGSGSGTDFTLKISRVEAEDVGVYYCAQGTSVPYTFGQGTKLEIK
notes: as for B2
Turning to B9, in the experiment with human CD3 ed, binding was characterised by a dissociation constant (Kd) of 9.11 µM, the koff was 0.102 s⁻¹ and the kon worked out at 11200 M⁻¹ s⁻¹. Moreover, in the experiment with cyno CD137, the Kd came to 205 µM and the koff was found to be 0.00223 s⁻¹.

B10: dBBDu173 (antibody, V domains shown)
VH: QVQLVESGGGLVQPGRSLRLSCAASGFTFSNAWMHWVRQAPGKGLEWVAQIKDKGNLYAAYYAPSVKGRFTISRDDSKNSIYLQMNSLKTEDTAVYYCHYVHYASAGGGLSAYGVDAWGQGTTVTVSS
VL: DIVMTQSPLSLPVTPGEPASISCRSSQSLVHSNRNTYLHWYQQKPGQAPRLLIYKVSNRFSGVPDRFSGSGSGTDFTLKISRVEAEDVGVYYCGQGTQVPYTFGQGTKLEIK
notes: as for B1
Consider B10, for which the ELISA signal turned out to be 2040 with human CD137-Fc [1] and 6540 with human CD137-Fc [2]. For the same molecule, in the experiment with human CD137-Fc [3], the Signal decrease was determined as 68.8%.

B11: dBBDu183/L067 (antibody, V domains shown)
VH: QVQLVESGGGLVQPGRSLRLSCAASGFTFSNAWMHWVRQAPGKGLEWVAQIKDKGNAYAAYYAPSVKGRFTISRDDSKNSIYLQMNSLKTEDTAVYYCHYVHYASASTVLPAFGVDAWGQGTTVTVSS
VL: DIVMTQSPLSLPVTPGEPASISCQSSESLVHVNRHTYLHWYQQKPGQAPRLLIYKVYNRFPGVPDRFSGSGSGTDFTLKISRVEAEDVGVYYCAQGTSVPFTFGQGTKLEIK
notes: as for B2
In the case of B11, in the experiment with human CD3 ed, the Kd was 0.217 µM, the off-rate (koff) worked out at 0.0193 s⁻¹ and the kon was 88900 M⁻¹ s⁻¹. Moreover, in the experiment with cyno CD137, binding was put at a Kd of 6.2 µM, the koff is 0.00813 s⁻¹ and the kon was 1310 M⁻¹ s⁻¹.
